In publication PMC12274480 (Communications Chemistry, 2025):

Target: Nn8 (fraction 8 from N. nivea venom) (Naja nivea, UniProt P01390, biotin (site not stated))
Assay: BLI

Sequence of Nn8 (fraction 8 from N. nivea venom) (P01390 whole entry, looked up): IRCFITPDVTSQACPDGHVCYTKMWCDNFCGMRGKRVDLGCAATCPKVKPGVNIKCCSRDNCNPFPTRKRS

B1: TPL1158_01_C09 (VHH)
VHH: QVQLQESGGGLVQPGGSLRLSCAASGDIGGLKQMGWYRQAPGHQRELVAVKRNENEANYTESVKGRFTISRDNARKMVYLQMNSLKPEDTAVYYCNAVVGNWYTSGYYEDTYWGQGTQVTVSS
B1 showed a Kd of 0.063 µM.
